# Legend:
# MMP-13 (collagenase 3) = MMP-13 (collagenase 3) (UniProt P45452 20-471, limits assumed); assay: cell-based or functional assay
# [1] = biological target: MMP-8 (neutrophil collagenase, collagenase 2) (UniProt P22894 21-467, limits assumed); assay: cell-based or functional assay
# Chain of MMP-8 (neutrophil collagenase, collagenase 2) (P22894 21-467 limits assumed): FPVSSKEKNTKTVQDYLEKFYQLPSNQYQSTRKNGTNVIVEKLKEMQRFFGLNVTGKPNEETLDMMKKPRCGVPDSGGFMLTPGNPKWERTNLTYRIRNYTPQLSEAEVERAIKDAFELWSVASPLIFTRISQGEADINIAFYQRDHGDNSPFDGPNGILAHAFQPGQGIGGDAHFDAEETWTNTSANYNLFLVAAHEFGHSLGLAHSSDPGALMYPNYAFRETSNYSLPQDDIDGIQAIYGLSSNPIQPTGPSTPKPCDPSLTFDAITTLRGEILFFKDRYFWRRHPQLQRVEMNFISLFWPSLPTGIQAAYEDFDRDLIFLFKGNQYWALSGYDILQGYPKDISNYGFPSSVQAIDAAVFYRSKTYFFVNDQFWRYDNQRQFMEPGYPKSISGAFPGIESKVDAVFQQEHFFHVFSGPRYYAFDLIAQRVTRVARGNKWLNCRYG
Binder,"IC50, inhibition of enzyme activity (fluorogenic substrate) (MMP-13 (collagenase 3)) [µM]","IC50, inhibition of enzyme activity (fluorogenic substrate) [1] [µM]"
"phosphinate-containing triple-helical peptide-amphiphile f4, C6-(Gly-Pro-Hyp)5-Gly-Pro-Pro-[Gly~Val]-Val-Gly-Glu-Gln-(Gly-Pro-Hyp)5-NH2 (N-terminal hexanoic acid (C6); Hyp (4-hydroxyproline) at 3, 6, 9, 12, 15, 27, 30, 33, 36, 39 (written P in letters); Gly19-Val20 peptide bond replaced by phosphinate psi{PO2H-CH2}; hypothesised phosphino Gly-(L)Val analog; C-terminal amide, One of two RP-HPLC-separated diastereomers of the C6-lipidated peptide; Triple helix of three identical strands by self-assembly; also called Peptide-amphiphile 2; peptide-amphiphile mimic) peptide: not shown",~10,~50
"phosphinate-containing triple-helical peptide-amphiphile f3, C6-(Gly-Pro-Hyp)5-Gly-Pro-Pro-[Gly~Val]-Val-Gly-Glu-Gln-(Gly-Pro-Hyp)5-NH2 (N-terminal hexanoic acid (C6); Hyp (4-hydroxyproline) at 3, 6, 9, 12, 15, 27, 30, 33, 36, 39 (written P in letters); Gly19-Val20 peptide bond replaced by phosphinate psi{PO2H-CH2}; hypothesised phosphino Gly-(D)Val analog; C-terminal amide) peptide: not shown",~10,~50
